Drawing on article PMC1933581, this text covers binding signal (% reduction vs NL4-3 Rev) for one substance.

Data set [1] has as its system Rev (D36) (HIV-1, SBBC subject D36). The data set can be described thus: EMSA. As to conditions: 10 mM HEPES/KOH pH 7.6, 150 mM KCl, 2 mM MgCl2, 0.5 mM EGTA, 1 mM DTT, 20% glycerol, 3.2 ug E. coli tRNA in 10 ul; excess RNA, protein 0-0.50 uM; 10 min on ….
Data set [2] has as its system Rev (C64) (HIV-1, SBBC subject C64). The data set can be described thus: EMSA. As to conditions: 10 mM HEPES/KOH pH 7.6, 150 mM KCl, 2 mM MgCl2, 0.5 mM EGTA, 1 mM DTT, 20% glycerol, 3.2 ug E. coli tRNA in 10 ul; excess RNA, protein 0-0.50 uM; 10 min on ….

Turning to RRE riboprobe, the binding signal (% reduction vs NL4-3 Rev) in data set [1] and in data set [2] was 90 throughout.
